Measured values reported in patent publication US20100272723A1 (Xencor, published 2010).

T1: human CD19 (human, UniProt P15391 20-556)
T1 construct: also called B-cell surface antigen B4; B-cell antigen CD19
T1 sequence: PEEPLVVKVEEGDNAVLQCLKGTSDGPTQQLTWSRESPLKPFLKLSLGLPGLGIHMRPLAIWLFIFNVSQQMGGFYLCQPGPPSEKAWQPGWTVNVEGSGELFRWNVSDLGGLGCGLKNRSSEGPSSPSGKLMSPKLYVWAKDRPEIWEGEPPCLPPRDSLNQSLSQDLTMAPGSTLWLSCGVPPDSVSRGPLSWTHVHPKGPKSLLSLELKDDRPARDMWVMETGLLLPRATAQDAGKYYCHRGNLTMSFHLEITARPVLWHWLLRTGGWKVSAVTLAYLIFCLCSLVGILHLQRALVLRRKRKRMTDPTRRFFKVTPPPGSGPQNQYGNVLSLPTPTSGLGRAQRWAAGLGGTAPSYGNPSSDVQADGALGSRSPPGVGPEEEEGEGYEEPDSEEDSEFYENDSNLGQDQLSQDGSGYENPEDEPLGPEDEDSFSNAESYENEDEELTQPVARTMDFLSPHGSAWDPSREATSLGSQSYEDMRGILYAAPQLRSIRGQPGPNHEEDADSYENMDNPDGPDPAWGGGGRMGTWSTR


Biological target: T1, human CD19
Assay: binding affinity relative to the parent H1L1 mAb (Example 5); assay and format not named on the sheet

Binder	Fold change binding [fold]
H1.192 / L1.146 (antibody, V domains shown, vs H1L1 (Kabat): VH T57P/S100cT; VL S27eV/A55N/F96N; also called 4G7 H1.192_L1.146) VH: EVQLVESGGGLVKPGGSLKLSCAASGYTFTSYVMHWVRQAPGKGLEWIGYINPYNDGPKYNEKFQGRVTISSDKSISTAYMELSSLRSEDTAMYYCARGTYYYGTRVFDYWGQGTLVTVSS VL: DIVMTQSPATLSLSPGERATLSCRSSKSLLNVNGNTYLYWFQQKPGQSPQLLIYRMSNLNSGVPDRFSGSGSGTEFTLTISSLEPEDFAVYYCMQHLEYPNTFGAGTKLEIK	3.19
H1.199 / L1.148 (antibody, V domains shown, vs H1L1 (Kabat): VH T57P/K58E/S100cT; VL L27cQ/A55N/F96N; also called 4G7 H1.199_L1.148) VH: EVQLVESGGGLVKPGGSLKLSCAASGYTFTSYVMHWVRQAPGKGLEWIGYINPYNDGPEYNEKFQGRVTISSDKSISTAYMELSSLRSEDTAMYYCARGTYYYGTRVFDYWGQGTLVTVSS VL: DIVMTQSPATLSLSPGERATLSCRSSKSLQNSNGNTYLYWFQQKPGQSPQLLIYRMSNLNSGVPDRFSGSGSGTEFTLTISSLEPEDFAVYYCMQHLEYPNTFGAGTKLEIK	4.34
H1.192 / L1.144 (antibody, V domains shown, vs H1L1 (Kabat): VH T57P/S100cT; VL L27cQ/F96N; also called 4G7 H1.192_L1.144) VH: EVQLVESGGGLVKPGGSLKLSCAASGYTFTSYVMHWVRQAPGKGLEWIGYINPYNDGPKYNEKFQGRVTISSDKSISTAYMELSSLRSEDTAMYYCARGTYYYGTRVFDYWGQGTLVTVSS VL: DIVMTQSPATLSLSPGERATLSCRSSKSLQNSNGNTYLYWFQQKPGQSPQLLIYRMSNLASGVPDRFSGSGSGTEFTLTISSLEPEDFAVYYCMQHLEYPNTFGAGTKLEIK	3.63
H1.199 / L1.152 (antibody, V domains shown, vs H1L1 (Kabat): VH T57P/K58E/S100cT; VL L27cQ/S27eV/F96N; also called 4G7 H1.199_L1.152) VH: EVQLVESGGGLVKPGGSLKLSCAASGYTFTSYVMHWVRQAPGKGLEWIGYINPYNDGPEYNEKFQGRVTISSDKSISTAYMELSSLRSEDTAMYYCARGTYYYGTRVFDYWGQGTLVTVSS VL: DIVMTQSPATLSLSPGERATLSCRSSKSLQNVNGNTYLYWFQQKPGQSPQLLIYRMSNLASGVPDRFSGSGSGTEFTLTISSLEPEDFAVYYCMQHLEYPNTFGAGTKLEIK	3.55
H1.192 / L1.154 (antibody, V domains shown, vs H1L1 (Kabat): VH T57P/S100cT; VL L27cQ/S27eV/A55N/F96N; also called 4G7 H1.192_L1.154) VH: EVQLVESGGGLVKPGGSLKLSCAASGYTFTSYVMHWVRQAPGKGLEWIGYINPYNDGPKYNEKFQGRVTISSDKSISTAYMELSSLRSEDTAMYYCARGTYYYGTRVFDYWGQGTLVTVSS VL: DIVMTQSPATLSLSPGERATLSCRSSKSLQNVNGNTYLYWFQQKPGQSPQLLIYRMSNLNSGVPDRFSGSGSGTEFTLTISSLEPEDFAVYYCMQHLEYPNTFGAGTKLEIK	5.12

The next lines start with the values.

Fold change binding [fold]	Binder
4.63	H1.192 / L1.148 (antibody, V domains shown, vs H1L1 (Kabat): VH T57P/S100cT; VL L27cQ/A55N/F96N; also called 4G7 H1.192_L1.148) VH: EVQLVESGGGLVKPGGSLKLSCAASGYTFTSYVMHWVRQAPGKGLEWIGYINPYNDGPKYNEKFQGRVTISSDKSISTAYMELSSLRSEDTAMYYCARGTYYYGTRVFDYWGQGTLVTVSS VL: DIVMTQSPATLSLSPGERATLSCRSSKSLQNSNGNTYLYWFQQKPGQSPQLLIYRMSNLNSGVPDRFSGSGSGTEFTLTISSLEPEDFAVYYCMQHLEYPNTFGAGTKLEIK
2.36	H1.199 / L1.139 (antibody, V domains shown, vs H1L1 (Kabat): VH T57P/K58E/S100cT; VL S27eV/F96N; also called 4G7 H1.199_L1.139) VH: EVQLVESGGGLVKPGGSLKLSCAASGYTFTSYVMHWVRQAPGKGLEWIGYINPYNDGPEYNEKFQGRVTISSDKSISTAYMELSSLRSEDTAMYYCARGTYYYGTRVFDYWGQGTLVTVSS VL: DIVMTQSPATLSLSPGERATLSCRSSKSLLNVNGNTYLYWFQQKPGQSPQLLIYRMSNLASGVPDRFSGSGSGTEFTLTISSLEPEDFAVYYCMQHLEYPNTFGAGTKLEIK
3.57	H1.196 / L1.146 (antibody, V domains shown, vs H1L1 (Kabat): VH T57P/S100cT/R100dS; VL S27eV/A55N/F96N; also called 4G7 H1.196_L1.146) VH: EVQLVESGGGLVKPGGSLKLSCAASGYTFTSYVMHWVRQAPGKGLEWIGYINPYNDGPKYNEKFQGRVTISSDKSISTAYMELSSLRSEDTAMYYCARGTYYYGTSVFDYWGQGTLVTVSS VL: DIVMTQSPATLSLSPGERATLSCRSSKSLLNVNGNTYLYWFQQKPGQSPQLLIYRMSNLNSGVPDRFSGSGSGTEFTLTISSLEPEDFAVYYCMQHLEYPNTFGAGTKLEIK
4.44	H1.196 / L1.154 (antibody, V domains shown, vs H1L1 (Kabat): VH T57P/S100cT/R100dS; VL L27cQ/S27eV/A55N/F96N; also called 4G7 H1.196_L1.154) VH: EVQLVESGGGLVKPGGSLKLSCAASGYTFTSYVMHWVRQAPGKGLEWIGYINPYNDGPKYNEKFQGRVTISSDKSISTAYMELSSLRSEDTAMYYCARGTYYYGTSVFDYWGQGTLVTVSS VL: DIVMTQSPATLSLSPGERATLSCRSSKSLQNVNGNTYLYWFQQKPGQSPQLLIYRMSNLNSGVPDRFSGSGSGTEFTLTISSLEPEDFAVYYCMQHLEYPNTFGAGTKLEIK
4.51	H1.201 / L1.160 (antibody, V domains shown, vs H1L1 (Kabat): VH D55S/S100cT; VL L27cQ/S27eV/G29A/A55N/F96I; also called 4G7 H1.201_L1.160) VH: EVQLVESGGGLVKPGGSLKLSCAASGYTFTSYVMHWVRQAPGKGLEWIGYINPYNSGTKYNEKFQGRVTISSDKSISTAYMELSSLRSEDTAMYYCARGTYYYGTRVFDYWGQGTLVTVSS VL: DIVMTQSPATLSLSPGERATLSCRSSKSLQNVNANTYLYWFQQKPGQSPQLLIYRMSNLNSGVPDRFSGSGSGTEFTLTISSLEPEDFAVYYCMQHLEYPITFGAGTKLEIK
